Common to all, as to assay: SPR, antibody captured, C2 as analyte;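 note: biacore at 37 °C, anti-C2 mAbs held by immobilised goat anti-human IgG, C2 alanine or serine mutants injected, double-referenced sensorgrams fitted to a 1:1 kinetic or steady-state model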
(Surface plasmon resonance follows binding to a sensor surface in real time, without labels.)

In one assay the target is T1, human C2 D404A (human, UniProt P06681 21-752).
T1 sequence: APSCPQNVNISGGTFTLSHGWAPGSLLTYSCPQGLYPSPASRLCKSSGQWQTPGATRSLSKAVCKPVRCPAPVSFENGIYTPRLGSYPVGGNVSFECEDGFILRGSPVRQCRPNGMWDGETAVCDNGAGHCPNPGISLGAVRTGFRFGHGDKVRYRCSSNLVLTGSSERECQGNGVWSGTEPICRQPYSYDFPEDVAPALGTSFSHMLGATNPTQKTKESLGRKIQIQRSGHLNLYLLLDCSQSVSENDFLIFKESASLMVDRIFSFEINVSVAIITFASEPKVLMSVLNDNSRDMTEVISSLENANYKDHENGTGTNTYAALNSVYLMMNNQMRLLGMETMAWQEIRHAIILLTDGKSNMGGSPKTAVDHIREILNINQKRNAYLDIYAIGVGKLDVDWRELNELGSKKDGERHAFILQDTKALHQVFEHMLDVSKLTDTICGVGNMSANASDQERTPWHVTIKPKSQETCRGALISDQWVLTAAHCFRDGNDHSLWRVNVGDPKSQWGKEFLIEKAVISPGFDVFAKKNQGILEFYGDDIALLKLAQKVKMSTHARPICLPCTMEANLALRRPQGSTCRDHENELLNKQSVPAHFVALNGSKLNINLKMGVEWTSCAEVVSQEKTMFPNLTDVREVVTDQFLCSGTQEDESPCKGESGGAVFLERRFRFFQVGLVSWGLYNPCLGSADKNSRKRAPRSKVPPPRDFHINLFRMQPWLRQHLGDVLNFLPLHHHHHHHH

A further assay has as its target T2, human C2 E433A (human, UniProt P06681 21-752).
T2 sequence: T1 sequence with A384D, E413A

A further assay concerns the target T3, human C2 A444S (human, UniProt P06681 21-752).
T3 sequence: T1 sequence with A384D, A424S

A further assay has as its target T4, human C2 R519A (human, UniProt P06681 21-752).
T4 sequence: T1 sequence with A384D, R499A

Kd data for one molecule are collected here from patent US20220332804A1 (CSL INNOVATION, published 2022).

Substitutions are numbered along the chain they refer to.

B1: RF16-242 (antibody, human IgG4 S228P, lambda, V domains shown)
VH: EVQLLQSGAEVKKPGESLKISCKGSGYSFTSYWIGWVRQMPGKGLEWMGIIYPGDSDTRYSPSFQGQVTISADKSISTAYLQWSSLKASDTAMYYCARRGHYGDYFDYWGQGTLVTVSS
VL: SYELTQPPSVSVSPGQTARITCSGDALPKKYAYWYHQKSGQAPVLVIYEDRRRPSEIPERFSGSSSGTMATLTITGAQVEDEGVYFCYSRDRAGNQRVFGGGTQLTVLG
notes: pH-dependent anti-C2 antibody from a phage display library
The term Kd denotes the equilibrium constant for the complex coming apart. For the molecule B1, the Kd was 16.4 nM with human C2 D404A, 3 nM with human C2 E433A, 22.4 nM in the assay with human C2 A444S and 7.6 nM with human C2 R519A.
